# Assay: soluble on expression in E. coli; label from the status in PepcDB or PDB records
row,Sequence,soluble on expression in E. coli
1,MGSDKIHHHHHHACEEEGLGNEETPFAPYVLSLGINSNGTTTYYVVTAPELMSGTINAVAKGIEQNGYRDYEQAGQTVFSIGGLGLTSATGIVRDANGYLTERGDFVFNSSLNAFTQMDGQNMIGLELPANKESGDQMTLYTVNISDVSITSQVKAPVFPLNQLEWPSITGMCYSEGNVYVTYFPMNPSTFETLYTDTTFVAVYSYPDMQFKTLMKDTRTGPAGSWNAFNGIFKVESGDMYIMSNSAIANGFSQSTKNAAFLRIPKGETHFDDYYFDFETVSGGLKPAHIKYIGNGLVFAEVSTISPQTSADRWGDKSLKCCIIDLNNKTVRDIKEIPVHNGDGGRRFAALVDGGYVYRPVTASEGTYIYQVDPQAATAVRGAKVSTTFVGGFFRLD,not soluble
2,MGSDKIHHHHHHMPTTASVLIRDSAPREATSPPFLDIRDVHKRFAGVKALRGVSLAIERGQIYHLLGENGCGKSTLIKIISGAQPPDEGTLVVEGREVAGLSPIMALAAGIETVYQDLSLLPNLSVAENIALSQQLVASGGQLARRLDLARLKATATRALEAVNLPAGDGFLATRVDELPIATRQLIAIARVIATDAKLVIMDEPTTALTKREVDNLIAVVEKLRAKGVAVLFVTHKLDECRTIGGRAIILRDGRKVMEGDIADFTKKDLSHWMTGRALDDSRYREAERGGERLLDVRDLGRANAFGGVSFSLNRGEILGVTGLLDSGRNELALALAGVCPADRGGVSLAGERVVLSQPADAIAAGIGYLPEDRLSEGLFLEKPIADNIIASVLDRLRGRLGMLDRPLSRSRAQEMTDDLQIATPDIANPVQSLSGGNQQRVLIGRWLMIEPRLLVLHGPTVGVDVGSKDTIFRIIQRLAKGGMAVIIISDDLPELLQNCDRILVMRKGRVAEVFDAEGLGEGALYRALVAEESPRSLP,not soluble
3,MGSDKIHHHHHHMGLRILQVMAGAEQGGAELFFERLCIALHRAGLHQHVVMREASVRLARMREAGLRPVLLPFGGRFDFKTGRALRQEIARFQPAVVLSWMNRATRFVRPGNHVFCARLGGYYDLKYYRGCDWLVCNTEDIRDYVIKQGFPAERAVHLPNFVPQQHMAPTARKLLYTPENAPLVLALGRLHENKAFDVLLRALALVPDVYLWLAGEGPLRASLETLAQDLGVKPRVRFLGWRDDTPALYAAADLVVFPSRHEPLGNVVLEAWAQRTPMVSTRTDGPARLITSGHNGLLVPIDDHRAMAGAIRQAFGEPGLGEAMARAGWDSYLAAYTEEKVVASYRSFFETIVAERSGAVDRG,not soluble
4,MGQKMKNAPVYFTIAQVRHNPVLRLGSYAPDIQDRMRKAGYPDFKKGIAMAFTLAPQLGDAPQTQPPVVEQVERLMFFSTDSTRGFIVEQNALSFHTTEYETFEALADEFMRGLAIVHECVTLAHSERIGLRYLDAVVPPGGETGLAEYLAPGVLGLSSRLPEDVTVSHSFSETHIQTAKCAVLARTIIQSGPLGFPMDLQPIGVKVADRFREINGVHAIVDTDASIEGRHPFNLELIKSQLQVLRDGVGIAFDATVTPIAVSAWNS,not soluble
5,MTPHATPAPRVSAIVSLYNAERFVRGCLDDLLGQTLADSLEIIVIDACSPQGEGAIVQDYMRDHPNIVYVRTDEREGVYASWNRGVRLARAPYVTNANADDRHREDALERLAAALDEAPEAGFAYGDCRVGQTENERYADNAGQRVMRFPDFFAPATLLYCQLGPQPLWRRSVHDVVGFFDESYRACADWDFDIRLAAAFRGIHVPDALGLYLEHEAAITFRDDTMTRENDRVQRQWQHPEAVEERYRAAGVPCHTAEERALVHFDMALRALRFYPPWCYGAPAHNPGFARRCLRHALRLAPALAPAKELLALPDAVLTALDDLPSPLGLPSQATLAGVAAPLEHHHHHH,not soluble
6,MPLHHLTRFPRLEFIGAPTPLEYLPRLSDYLGREIYIKRDDVTPIAMGGNKLRKLEFLVADALREGADTLITAGAIQSNHVRQTAAVAAKLGLHCVALLENPIGTTAENYLTNGNRLLLDLFNTQIEMCDALTDPDAQLQTLATRIEAQGFRPYVIPVGGSSALGAMGYVESALEIAQQCEEVVGLSSVVVASGSAGTHAGLAVGLEHLMPDVELIGVTVSRSVAEQKPKVIALQQAIAGQLALTATADIHLWDDYFAPGYGVPNDAGMEAVKLLASLEGVLLDPVYTGKAMAGLIDGISQKRFNDDGPILFIHTGGAPALFAYHPHV,not soluble
7,MQPKVVYGNAAVEGVNRWGWFMGHFITPEDDPRSTEMLEVKWAVHKAGDSRTEWAVNNQAATLSILIDGEFRLQFEDREILLSREGDYVLWCAGVPHWWVAESDCTILTVRWPSKPGDSVALPEESKS,soluble
8,MAVRVAINGFGRIGRNILRAIVESGRTDIQVVAINDLGPVETNAHLLRYDSVHGRFPKEVEVAGDTIDVGYGPIKVHAVRNPAELPWKEENVDIALECTGIFTSRDKAALHLEAGAKRVIVSAPADGADLTVVYGVNNDKLTKDHLVISNASCTTNCLAPVAQVLNDTIGIEKGFMTTIHSYTGDQPTLDTMHKDLYRARAAALSMIPTSTGAAKAVGLVLPELKGKLDGVAIRVPTPNVSVVDLTFIAKRETTVEEVNNAIREAANGRLKGILGYTDEKLVSHDFNHDSHSSVFHTDQTKVMDGTMVRILSWYDNEWGFSSRMSDTAVALGKLI,soluble
9,MGSDKIHHHHHHMLPQSFSYKVIRHNMITVAHLINNIVQSGPVIVMRDIIRHMDRDKFHPIVICLRHEEKEDPIVKELRAIDVKCIYLNYSLLSLELQTGRIARKVLSVLRNEKAHILHSHGYHPDLIASHLSRNITSLSTLHNISKDDFTFLKGNLLGSYMNFRYLRSLSKIGHYVAISRAVADYYASHVNKAKERIRIIHNGVDLSFFQIPDEDHQKQLRHRLGLPVSGKIFLVVGRLFSRKDPLIIIRAFKFLLESQKLSGDFYLFFLGDGPLSDACQKEIGDKTHNIRLLGFQKNVHEYMMAADYAITASHSEGFGLNYLEATACGKPVVATDLPPFREICGTGFQDNELFFSVGNQKELEDCILKSLGHTFNPQKVSDIRHHFSAETMSVQYQNYYTELSAPLK,not soluble
10,MVQNDETQYIARILDGDTECFSAFLDRYSRPLYVLIVQIVGCSEDAEELVQDVFLKAFRCLGSYRGECRFSTWLYRIAYTTAVSATRKKKQEFLYIEENTINNVPDEKADDILYPTDDEERTARLIQAIDLLNVEEKALITLFYYEEKSIEEIGEVLKLSPGNVKVKLHRTRKKIYVLMNGKE,not soluble
11,MGSDKIHHHHHHMLKLLKPKHRSILGIDISSSAVKILEISGSGEDICVEGYGREEIPASALEGNIIKDVDVVANCIKKLVERLKFTSKNVALAVPDSAVISKVVQINEGLTDLEMEELVVIEADKYIPYPIDEINLDFEVLGHSAKSSSLLDVLIVASRAENVNTRVEAAHRAGLEPKVVDVESYAVERSVQQIAQELPASGQDKIVAIVDIGANYTHLFVLHGMRLIFSREEKFGGMQLVEAIAEHYHMNLEQAIALKNQGKLPEDYESAVLEPFKDMILLQIKRTLQFFYSTSQHGFVDHILLAGGMARQSGLAALIQEQLGVTTTVANPLSHMSFGKKVNLDVINSDAPTLMVACGLALRHVE,not soluble
12,MGSDKIHHHHHHMNEMWLHRADLAESAINERHASRLWMLPRTNLAVVAWPPTAKERLFYRWHYWWQAHYLDCLIDAASRRTTKARKQRIRDTIVGIRLRNLGRLTKNNYYDDKSWLALALDRERRLNKRAKREYLRVLEGNIAAGQDDIQGVLPWRVGEHFFNVPTNGPAAIMLARNGEVEQARKLVDWIFDNLINDKGLVMDGLRMSMRGPEIVDPVYPYCQGVVIGACIEIAEALPFEESVQYLAHARAVIHAVAKEMATPEGVINAATGDGDGGLFKGILMRYLADAAVRLPEDGPANIATKKIAKRLVMASAESVWEHRLEVDGLPVFATDWCDDARLPHNYGVGGSALSDIVRVVRIDERDLSVQLSGWMLLEAAARVSLVD,not soluble
